Experimental findings from FireProtDB (doi:10.1021/bi00118a013) are described below.

For orientation: Tm means the temperature at the midpoint of the melting transition.

For the series the following is noted: Aspergillus oryzae (strain ATCC 42149 / RIB 40), pH 7, Fluorescence, MOPS 30 mM, reversible: yes, whole UniProt chain shown.

B1: Guanyl-specific ribonuclease T1 wild type, P00651 (protein)
chain: MMYSKLLTLTTLLLPTALALPSLVERACDYTCGSNCYSSSDVSTAQAAGYQLHEDGETVGSNSYPHKYNNYEGFDFSVSSPYYEWPILSSGDVYSGGSPGADRVVFNENNQLAGVITHTGASGNNFVECT
Consider B1, for which, for the setting “25 °C, Urea”, the denaturant m value is 1.21 kcal/mol/M and the “denaturant midpoint (higher = more stable)” value came out at 5.3 M. In addition, where the note is “Thermal”, the Tm is 50.9 °C and the “unfolding enthalpy (van 't Hoff)” value turned out to be 110 kcal/mol.
